We go through 12 molecules from US20250034594A1, “RNA-GUIDED GENOME RECOMBINEERING AT KILOBASE SCALE” (THE BOARD OF TRUSTEES OF THE LELAND STANFORD JUNIOR …, priority 2021, published 2025).

What all share (format): cell-based
One test relates to gene editing with dCas9. The test can be described thus: Screen of 322 new SSAP proteins, gene editing activity with dCas9 (Table 5). More on the design: dCas9 with SSAP activity: scale not given here. The method in brief: (§1)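 Editing screen of 322 newly identified, synthesized SSAPs, each co-used with Cas9 and with dCas9.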
The next test concerns gene editing with Cas9. Put plainly: Screen of 322 new SSAP proteins, gene editing activity with Cas9 (Table 5). Further details: Cas9 with SSAP activity: scale not given here. The method in brief: as §1
Test [1] relates to gene editing with Cas9 and dCas9. The test can be described thus: Screen of 322 new SSAP proteins, activity across all experiments (Cas9 and dCas9, Table 5). Further details: scale not given here. The method in brief:
as §1

B1: SSAP_107: SEQ ID NO: 276; Ammoniphilus oxalaticus (protein, listed as Ammoniphilus oxalaticus)
chain: STKATSNELKNQLANRQGNNAATNNNPANTIAAYLKRMAPEIEKALPAHMDADRLARIALTTIRTTPKLLECTIPSLMGAVMQSAQLGLEPGLIGHCYIIPYGKEATFIIGYKGMIDLARRSGNIESIYAHAVYKNDEFEYEYGLKPNLVHKPAMSDQGDFIGAYAVAHFKDGGYQFEFMPKEEIDKRRNRSAASKGGPWVTDYEEMAKKTVVRHMWKYLPISIEIQQAATQDEVVRKDITEDPMPVDVLDIPFEASDAEETSEEGEINFD
Consider B1, for which, in the test with gene editing with dCas9, the “dCas9 with SSAP activity” value is −4.159 and the “dCas9 with SSAP activity (normalized)” value is given as −0.615. In addition, in the test with gene editing with Cas9, the “Cas9 with SSAP activity” value is 0.596 and the “Cas9 with SSAP activity (normalized)” value amounted to 1.792. In test [1], the “Activity across all experiments” value is recorded as −1.782.

B2: SSAP_3: SEQ ID NO: 167; RecT Escherichia coli (protein)
chain: MTKQPPIAKADLQKTQGNRAPAAVKNSDVISFINQPSMKEQLAAALPRHMTAERMIRIATTEIRKVPALGNCDTMSFVSAIVQCSQLGLEPGSALGHAYLLPFGNKNEKSGKKNVQLIIGYRGMIDLARRSGQIASLSARVVREGDEFSFEFGLDEKLIHRPGENEDAPVTHVYAVARLKDGGTQFEVMTRKQIELVRSLSKAGNNGPWVTHWEEMAKKTAIRRLFKYLPVSIEIQRAVSMDEKEPLTIDPADSSVLTGEYSVIDNSEE
Consider B2, for which, in the test on gene editing with dCas9, the “dCas9 with SSAP activity” value came out at 1.058 and the “dCas9 with SSAP activity (normalized)” value is on record as 0.695. In the test with gene editing with Cas9, the “Cas9 with SSAP activity” value is on record as −0.942 and the “Cas9 with SSAP activity (normalized)” value is −0.788. Also, the “Activity across all experiments” value in test [1] stood at 0.058.

B3: SSAP_254: SEQ ID NO: 423; Pediococcus pentosaceus (protein, listed as Pediococcus pentosaceus)
chain: MNDISKVPMKVLVQQDKVQRMLENTLKGKTRQFTTSLINVVNSNQSLADVDQMSVIKSAMVAASLDLPIDQNLGFMWLVPYKGMATPQIGYKGYIQLALRTGQYKKLNTIVVHEGEMKYWNPLTEDFEYDPKGKESDEVIGYLGYLRMINGFEKTVYWTKQNIEDHRMKFSKMSGKAKPSGVWASNYDAMALKTVMRNLLSKWGIMSIEMQQAVVQDEKAPETDVRDVTPTETNSIDSLLAPEPKGEPINDSNEATVPTNAE
Take B3: in the test with gene editing with dCas9, the “dCas9 with SSAP activity” value is recorded as −4.178 and the “dCas9 with SSAP activity (normalized)” value is −0.675. Moreover, in the test with gene editing with Cas9, the “Cas9 with SSAP activity” value was −1.160 and the “Cas9 with SSAP activity (normalized)” value is −0.694. Besides, the “Activity across all experiments” value in test [1] was −2.669.

B4: SSAP_183: SEQ ID NO: 352; Clostridium sp. CAG: 277 (protein, listed as Clostridium sp.)
chain: DFKEELAAKAEVAATTKKSDGVKLTKNMSIVDMIKALEPEIKRALPSVLTPERFVRMALTAVNNTPALAQCTPMSFIAALMNAAQLGLEPNTPLGQAYLIPYKNKKKGVVECQFQIGYKGMIDLVYRNDNVQTIQAHIVRENDHFEYELGLESKLRHIPAMEGRGEMMYVYALFKLTNGGYGFEVLNKEAVIAHAERYSPSYDGFSPWKTDFESKGLELFLILDLSSKQSGK
With B4, in the test on gene editing with dCas9, the “dCas9 with SSAP activity” value is listed as −4.151 and the “dCas9 with SSAP activity (normalized)” value is reported as −0.615. In the test on gene editing with Cas9, the “Cas9 with SSAP activity” value is reported as −0.476 and the “Cas9 with SSAP activity (normalized)” value was −0.351. The “Activity across all experiments” value in test [1] is reported as −2.313.

B5: SSAP_206: SEQ ID NO: 375; Actinopolyspora xinjiangensis (protein, listed as Actinopolyspora xinjiangensis)
chain: TGQTIGTAVAKKDDENPSAIIATNRADLARVMPSHVRTDSWVRIAQGIVRRDKNLAHAARQSPGTLMVALMEAARLGLEPGTEQYYLTPRKNKGKPEVLGIPGYQGLIELMYRSGAVSSVVVETVRENDTFQWAPGRMERPEHEADWFAINGERGQLRGVYAYAIMSNGATSKVVVLNRNDIARARDSAQGADSEHSPWKNHEEAMWLKTAARRLAKWVPTSTEDRRIVQGVAERSDQPTEAPLDLTDEPDTDQPIEGELVDEEATQ
For B5, in the test on gene editing with dCas9, the “dCas9 with SSAP activity” value was −4.016 and the “dCas9 with SSAP activity (normalized)” value was −0.671. Also, in the test with gene editing with Cas9, the “Cas9 with SSAP activity” value worked out at 2.444 and the “Cas9 with SSAP activity (normalized)” value amounted to 1.806. The “Activity across all experiments” value in test [1] is recorded as −0.786.

B6: SSAP_25: SEQ ID NO: 194 (protein)
chain: NNEVMEKSVEYEVNGNSVKLTPNMIKQFITKGNADVTDQEAIMFMKLAEQQQLNPFLNEVYLIKFKGKPAQNIVAKEAFMKRAEKHSEYDGLEAGIIVQRGEEIKELPGAVCLPTDNLLGGWARVYRKDRKNPFYVQLDFKEFSKGQATWNQMPKNMIRKTAIVNALREAFPEALGAMYTEDDARLEEVKTAEPIKEKAETTQILENKFKELSENGQTEVGDEQTNESTEPEPTAKQEQLL
As to B6, in the test with gene editing with dCas9, the “dCas9 with SSAP activity” value was −4.113 and the “dCas9 with SSAP activity (normalized)” value is reported as −0.660. Further, in the test with gene editing with Cas9, the “Cas9 with SSAP activity” value was found to be 0.597 and the “Cas9 with SSAP activity (normalized)” value amounted to 0.880. For the same molecule, in test [1], the “Activity across all experiments” value is given as −1.758.

B7: SSAP_219: SEQ ID NO: 388; Streptomyces uncialis (protein, listed as Streptomyces uncialis)
chain: SQISTAIATRDNGPAAVVEQYRESLALVMPSHLQQRVGAWIRNTQGLLRRDSKLMEAAQNDVGQFVAVLMDAARLGLEPGTEHYYLVPRWNNKKRATEVTGVRGYQGEIELMYRAGAVSSVIVEVVHTQDQFRFRPGRDARPVHDIDWDLEDRGSLRLVYAYAVMKDGATSKVVVLNRQHIAAARAKSDSAAKDWSPWNTDEEAMWLKTAAHRLTKWVPTSAEYLREQIRAQVAVESEQRPEPLPVAPPPAPGTVDADPDDEGPIDGELVD
As to B7, in the test with gene editing with dCas9, the “dCas9 with SSAP activity” value is reported as −4.163 and the “dCas9 with SSAP activity (normalized)” value was −0.726. Moreover, in the test with gene editing with Cas9, the “Cas9 with SSAP activity” value is recorded as 0.580 and the “Cas9 with SSAP activity (normalized)” value turned out to be 0.924. For the same molecule, the “Activity across all experiments” value in test [1] is −1.792.

B8: SSAP_31: SEQ ID NO: 200 (protein)
chain: TTVNQTELKNKLAEKAKTPAKTGNTVFDLIRKMEPEIKRALPKQISPERFARIAMTAVRNTPKLQACEPISFIAALMQSAQLGLEPNTPLGQAYLIPYGKEVQFQLGYQGMLTLAYRTGEYQSIYAMPVYANDEFEYEYGLNEKLVHKPAPDPEGEPIYYYAVYKLKNGGHGFVVMSRQQIERHRDKYSPSAKQGKFSPWNTDFDSMAKKTVLKQLLKYAPKSVEFATQIAQDETIKTEIAEDMTEVQGIEVEYEATDDQENQENQEQED
For B8, in the test with gene editing with dCas9, the “dCas9 with SSAP activity” value is −4.110 and the “dCas9 with SSAP activity (normalized)” value is given as −0.643. Further, in the test on gene editing with Cas9, the “Cas9 with SSAP activity” value was −4.826 and the “Cas9 with SSAP activity (normalized)” value is −0.842. Also, the “Activity across all experiments” value in test [1] is reported as −4.468.

B9: SSAP_147: SEQ ID NO: 316; Staphylococcus felis (protein, listed as Staphylococcus felis)
chain: ANANSFKEQVSNKNEVSENNNTPQQKTKGPRQQVSDLLERMAPEIQKALPSHMSAERMARIAMTAISSNTQLLECNPRSLIGALLQASQIGLEPNTALGQAYLIPYYNRNKGEFEAQLQLSYLGLIELATRTGQYKAIYAHEVYKEDEFYYEYGLHKNLVHKPVDDPKSEPIGYYAVYHLQNGGYDFSFWTRNKVELHSGQYSKAVQKGWNSPWKTDFNAMAKKTVLKDLLKYAPKSVEVSRAVGTDSKVSEISQNGEIIDVTDYSKEEE
With B9, in the test with gene editing with dCas9, the “dCas9 with SSAP activity” value is reported as −4.023 and the “dCas9 with SSAP activity (normalized)” value is reported as −0.498. For the same molecule, in the test on gene editing with Cas9, the “Cas9 with SSAP activity” value was found to be 0.679 and the “Cas9 with SSAP activity (normalized)” value is 1.062. Also, the “Activity across all experiments” value in test [1] is listed as −1.672.

B10: SSAP_70: SEQ ID NO: 239 (protein)
chain: SNLKNQLANKAGGTATKKQPQTMQDWIKVMEPQIKKALPSVITAERFTRMALTAISTNPKLAECTPESFMGALMNAAQLGLEPNTPLGQAYLIPYGKSVQFQVGYKGLMELAQRSGQFKSIYAHTVYENDEFEVEYGLTQNIVHKPNFDDRGKPIGFYAVYKLTNGGENFVFMTQREVEEFGKAKSKTFNNGPWKTDFEAMAKKTVLKQLLKYAPIKVEFQREIAQDATIKTEIAEDMTEVPEEMVEAEYEVVEQNTMAEDADLKGTPFETK
As to B10, in the test with gene editing with dCas9, the “dCas9 with SSAP activity” value is −4.070 and the “dCas9 with SSAP activity (normalized)” value was −0.652. Also, in the test on gene editing with Cas9, the “Cas9 with SSAP activity” value is −1.263 and the “Cas9 with SSAP activity (normalized)” value is −0.349. Also, the “Activity across all experiments” value in test [1] is given as −2.666.

B11: SSAP_171: SEQ ID NO: 340; Streptomyces indicus (protein, listed as Streptomyces indicus)
chain: STDARNAVARRAETVGQVEQQAQQQPTLAQQIERMKPEMERALPKHMSADRMARIALTLIRKNPDLATCNTQSFLGALMTCSQLGFEPGSPTQEAYIIPRKGNAEFQLGYQGMVTLFYQHPMASSIKVETVRENDYFEHEEGLEERLVHRPCATGPRGRAIAYYSVARLINGGRTFKVMYPDEIEERRQKLPSKNSPAWRDNYDEMAKKTVLRNHFKALPKSAQLARALAHDGTVRTDATADVIDVAPEYPQRPELEAGPTA
For B11, in the test with gene editing with dCas9, the “dCas9 with SSAP activity” value was −4.132 and the “dCas9 with SSAP activity (normalized)” value is reported as −0.827. For the same molecule, in the test with gene editing with Cas9, the “Cas9 with SSAP activity” value is given as −0.924 and the “Cas9 with SSAP activity (normalized)” value is recorded as −0.410. Further, the “Activity across all experiments” value in test [1] is −2.528.

B12: SSAP_109: SEQ ID NO: 278; Bacillus (multispecies) (protein, listed as Bacillus sp.)
chain: TQAEKLKNDIAKQEQKNEVAQDDKPKTILDVMMQHKESFEMALPKHLDADRLIRLAVTEFRKNPMLKECTPESLLGAVMQAAQVGLEPDALGSAYLVPYYNKNKNVKEVQLQIGYKGLIELVRRSGQVTSIVANEVYENDEFDFEYGINEKLYHKPTMDADRGKLKCFYAYARFKDGGHAFTVMSVEQINQIRDKFSKSQKNGKHFGPWADHYESMAKKTVIKQLVKYMPISVEIQNQITRDETVHSSFKEEPKPIYAFEESPDIIDAPIEN
For B12, in the test on gene editing with dCas9, the “dCas9 with SSAP activity” value is reported as −4.168 and the “dCas9 with SSAP activity (normalized)” value is −0.640. For the same molecule, in the test with gene editing with Cas9, the “Cas9 with SSAP activity” value is −1.697 and the “Cas9 with SSAP activity (normalized)” value was −0.475. In addition, the “Activity across all experiments” value in test [1] is on record as −2.932.
